{"source": "patent US20090291890A1", "about": "(published 2009)", "molecules": {"B1": {"name": "FVIIa Q286R/M298Q (enzyme)", "chain": "ANAFLEELRPGSLERECKEEQCSFEEAREIFKDAERTKLFWISYSDGDQCASSPCQNGGSCKDQLQSYICFCLPAFEGRNCETHKDDQLICVNENGGCEQYCSDHTGTKRSCRCHEGYSLLADGVSCTPTVEYPCGKIPILEKRNASKPQGRIVGGKVCPKGECPWQVLLLVNGAQLCGGTLINTIWVVSAAHCFDKIKNWRNLIAVLGEHDLSEHDGDEQSRRVAQVIIPSTYVPGTTNHDIALLRLHQPVVLTDHVVPLCLPERTFSERTLAFVRFSLVSGWGRLLDRGATALELQVLNVPRLMTQDCLQQSRKVGDSPNITEYMFCAGYSDGSKDSCKGDSGGPHATHYRGTWYLTGIVSWGQGCATVGHFGVYTRVSQYIEWLQKLMRSEPRPGVLLRAPFP"}, "B2": {"name": "Q286R/S222A-FVIIa (enzyme)", "light": "ANAFLEELRPGSLERECKEEQCSFEEAREIFKDAERTKLFWISYSDGDQCASSPCQNGGSCKDQLQSYICFCLPAFEGRNCETHKDDQLICVNENGGCEQYCSDHTGTKRSCRCHEGYSLLADGVSCTPTVEYPCGKIPILEKRNASKPQGR", "heavy": "IVGGKVCPKGECPWQVLLLVNGAQLCGGTLINTIWVVSAAHCFDKIKNWRNLIAVLGEHDLSEHDGDEQARRVAQVIIPSTYVPGTTNHDIALLRLHQPVVLTDHVVPLCLPERTFSERTLAFVRFSLVSGWGRLLDRGATALELMVLNVPRLMTQDCLQQSRKVGDSPNITEYMFCAGYSDGSKDSCKGDSGGPHATHYRGTWYLTGIVSWGQGCATVGHFGVYTRVSQYIEWLQKLMRSEPRPGVLLRAPFP"}}, "key": {"[1]": {"biological_target": "Factor X (FX) (Homo sapiens (Human)) (UniProt P00742)", "sequence (P00742 41-488 limits assumed)": "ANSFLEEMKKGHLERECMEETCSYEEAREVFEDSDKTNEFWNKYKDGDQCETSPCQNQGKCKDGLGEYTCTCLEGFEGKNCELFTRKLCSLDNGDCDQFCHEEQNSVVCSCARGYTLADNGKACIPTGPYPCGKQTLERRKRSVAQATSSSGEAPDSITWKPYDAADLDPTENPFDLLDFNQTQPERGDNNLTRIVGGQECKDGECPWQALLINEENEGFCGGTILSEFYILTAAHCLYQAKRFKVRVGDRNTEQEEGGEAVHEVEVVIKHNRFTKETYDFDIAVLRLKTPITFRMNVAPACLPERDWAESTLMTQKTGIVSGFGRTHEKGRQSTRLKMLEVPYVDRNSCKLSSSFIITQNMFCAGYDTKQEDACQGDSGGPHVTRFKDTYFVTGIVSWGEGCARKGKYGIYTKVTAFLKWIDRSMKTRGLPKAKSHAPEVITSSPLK"}, "[2]": {"biological_target": "Factor X (FX) (Homo sapiens (Human)) (UniProt P00742)", "remark": "listed apart in the source"}, "[3]": {"biological_target": "T1, soluble tissue factor (recombinant human Coagulation Factor III/soluble tissue factor; R&D Systems) (human)", "T1 chain": "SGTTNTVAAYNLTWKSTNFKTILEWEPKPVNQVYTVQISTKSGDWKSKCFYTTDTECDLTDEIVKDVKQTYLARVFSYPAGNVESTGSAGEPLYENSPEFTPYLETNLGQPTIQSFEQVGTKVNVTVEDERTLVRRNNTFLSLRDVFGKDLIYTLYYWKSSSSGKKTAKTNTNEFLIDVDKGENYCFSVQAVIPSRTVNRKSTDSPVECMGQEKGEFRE", "assay": "SPR (Biacore T100), sTF on chip, two-state fit; FVIIa made in CHOX stable cell line clone 52-5F7"}, "[4]": {"biological_target": "T1, soluble tissue factor (recombinant …)", "assay": "SPR (Biacore T100), sTF on chip, two-state fit"}, "[5]": {"biological_target": "T1, soluble tissue factor (recombinant …)", "assay": "SPR (Biacore T100), sTF on chip, two-state fit; FVIIa made in CHOX cells"}, "[6]": {"biological_target": "Factor X (FX) (Homo sapiens (Human)) (UniProt P00742)", "remark": "listed apart in the source"}, "[7]": {"biological_target": "T2, soluble tissue factor (sTF) (human)", "T2 chain": "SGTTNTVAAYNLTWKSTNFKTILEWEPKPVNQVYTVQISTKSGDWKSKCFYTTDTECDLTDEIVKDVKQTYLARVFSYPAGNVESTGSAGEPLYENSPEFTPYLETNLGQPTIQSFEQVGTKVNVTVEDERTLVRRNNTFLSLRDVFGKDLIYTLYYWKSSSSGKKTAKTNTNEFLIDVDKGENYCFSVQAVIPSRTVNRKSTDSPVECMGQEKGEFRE", "assay": "SPR (Biacore T100), sTF on CM5 chip, 1:1 fit; FVIIa from BHK cells"}}, "data": [{"molecule": "wild-type Factor VIIa (FVIIa) (enzyme)", "values": [{"measurement": "catalytic activity, kcat/Km (M^-1sec^-1), for FX activation in the presence of lipidated TF", "setting": "[1]", "value": "1.8e+07", "unit": "M⁻¹ s⁻¹"}]}, {"molecule": "Gla swapFIX/Q366V FVIIa (enzyme)", "values": [{"measurement": "TF-independent catalytic activity, kcat/Km, for the substrate FX (times wild-type FVIIa)", "setting": "[2]", "value": "> 9"}]}, {"molecule": "Gla swap FIX/Q286R/M298Q FVIIa (enzyme)", "values": [{"measurement": "TF-dependent catalytic activity, kcat/Km, for the substrate FX", "setting": "[2]; scale: times that of the wild type FVII polypeptide", "value": "> 6"}]}, {"molecule": "B1", "values": [{"measurement": "Kd", "setting": "[3]", "value": 3.2, "unit": "nM"}, {"measurement": "Affinity Kd-WT/Kd-mut", "setting": "[4]", "value": 1.9}, {"measurement": "Kd", "setting": "[4]", "value": 4.1, "unit": "nM"}, {"measurement": "Affinity Kd-WT/Kd-mut", "setting": "[5]", "value": 1.1}, {"measurement": "Kd", "setting": "[5]", "value": 3.6, "unit": "nM"}, {"measurement": "kcat/KM, TF-Dependent Indirect Assay", "setting": "[6]", "value": "1.85e+08", "unit": "M⁻¹ s⁻¹"}]}, {"molecule": "B2", "values": [{"measurement": "Kd", "setting": "[7]", "value": 7.3, "unit": "nM"}]}]}
